From publication PMC2169300, “Signal-Regulated Pre-mRNA Occupancy by the General Splicing Factor U2AF” come the findings set out here.

Series [1] concerns the target T1, His-Sam68 (mouse, UniProt Q60749 1-443). The experiment in a line: EMSA; 25 and 50 ng protein; EMSA as described in cited ref [19]; buffer, salt, pH and temperature not given. The note with it: protein: recombinant; tags: His (pQE-32); chain copies: 2. (Mobility shift assays separate free from complexed probe on a gel.)
Series [2] addresses T1, His-Sam68. Kind of series: EMSA; dose-dependent; EMSA as described in cited ref [19]; buffer, salt, pH and temperature not given. The note with it: protein: recombinant; tags: His (pQE-32); chain copies: 2.

T1 sequence (Q60749 whole entry): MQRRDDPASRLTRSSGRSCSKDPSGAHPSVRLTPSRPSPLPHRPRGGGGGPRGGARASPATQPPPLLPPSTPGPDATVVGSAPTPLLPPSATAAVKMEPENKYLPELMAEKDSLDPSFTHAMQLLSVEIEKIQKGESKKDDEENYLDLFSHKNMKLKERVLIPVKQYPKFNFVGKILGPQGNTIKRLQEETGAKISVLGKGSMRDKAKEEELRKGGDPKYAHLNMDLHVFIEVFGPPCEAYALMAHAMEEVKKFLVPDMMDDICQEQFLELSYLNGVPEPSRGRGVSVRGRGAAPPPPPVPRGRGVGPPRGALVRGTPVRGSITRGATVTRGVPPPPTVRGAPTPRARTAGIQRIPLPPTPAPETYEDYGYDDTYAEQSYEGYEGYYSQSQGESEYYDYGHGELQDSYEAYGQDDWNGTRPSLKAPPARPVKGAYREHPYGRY

B1: CD44 v5 exonic Sam68 site RNA (ssRNA)
RNA: AUAGACAGAAUCAGCACCAGUGCUCAUGGAGAAAAUUGGACC
Regarding B1, the binding result in the series with His-Sam68 [1] is “binds”.

B2: CD44 intronic Sam68 site RNA (wt) (ssRNA)
RNA: GAAGAAGAGGAUUAUUAAAGACUAUUUGAUUAGA
B2: the binding result in the series with His-Sam68 [2] is “binds”.
